Experimental data taken from the Immune Epitope Database (IEDB).
Each block holds one sequence with its values, some of them ahead of it.

Columns and labels:
HLA-A*02:01 [1] = assay: IEDB peptide-MHC binding, purified MHC/competitive/radioactivity; filed as Kd, often an IC50 or EC50 that approximates it; ≥ and ≤ were set here for values at or beyond the usual limits of such assays
HLA-A*02:02 = assay: as above; details: source organism: Trypanosoma cruzi
HLA-A*02:03 = assay: as above; details: source organism: Trypanosoma cruzi
HLA-A*02:06 = assay: as above; details: source organism: Trypanosoma cruzi
HLA-A*68:02 = assay: as above; details: source organism: Trypanosoma cruzi
HLA-A*01:01 = assay: IEDB peptide-MHC binding, purified MHC/direct/fluorescence; filed as Kd, often an IC50 or EC50 that approximates it; ≥ and ≤ were set here for values at or beyond the usual limits of such assays
HLA-A*02:01 [2] = assay: as above
HLA-A*03:01 = assay: as above
HLA-A*11:01 = assay: as above
HLA-A*31:01 = assay: as above
HLA-A*69:01 = assay: as above
HLA-B*07:02 = assay: as above
HLA-B*15:01 = assay: as above
HLA-B*27:05 = assay: as above
HLA-B*40:01 = assay: as above
HLA-B*44:02 = assay: as above
HLA-B*58:01 = assay: as above
HLA-A*30:02 = assay: IEDB peptide-MHC binding, purified MHC/competitive/radioactivity; filed as Kd, often an IC50 or EC50 that approximates it; ≥ and ≤ were set here for values at or beyond the usual limits of such assays; details: source organism: Dengue virus 3 Martinique/1243/1999
HLA-A*24:03 = assay: IEDB peptide-MHC binding, purified MHC/direct/fluorescence; filed as Kd, often an IC50 or EC50 that approximates it; ≥ and ≤ were set here for values at or beyond the usual limits of such assays; details: source organism: Listeria monocytogenes
HLA-A*26:01 = assay: as above; details: source organism: Vibrio cholerae
HLA-B*08:01 = assay: as above; details: source organism: Vibrio cholerae
[3] = source organism: Trypanosoma cruzi
[4] = source organism: dengue virus type 3
[5] = source organism: Vibrio cholerae

Sequence: LLGLWGFAAA
Kd (HLA-A*02:01 [1]; [3]): 0.0691 µM | Kd (HLA-A*02:02): 0.0288 µM | Kd (HLA-A*02:03): 0.000552 µM | Kd (HLA-A*02:06): 0.0494 µM | Kd (HLA-A*68:02): ≥ 125 µM

Sequence: TSEHGGRAY
Kd (HLA-A*01:01; [4]): 0.337 µM | Kd (HLA-A*02:01 [2]; [4]): ≥ 20 µM | Kd (HLA-A*03:01; [4]): ≥ 20 µM | Kd (HLA-A*11:01; [4]): ≥ 20 µM | Kd (HLA-A*31:01; [4]): ≥ 20 µM | Kd (HLA-A*69:01; [4]): ≥ 20 µM | Kd (HLA-B*07:02; [4]): ≥ 20 µM | Kd (HLA-B*15:01; [4]): 0.248 µM | Kd (HLA-B*27:05; [4]): ≥ 20 µM | Kd (HLA-B*40:01; [4]): ≥ 20 µM | Kd (HLA-B*44:02; [4]): ≥ 20 µM | Kd (HLA-B*58:01; [4]): ≥ 20 µM | Kd (HLA-A*30:02): ≥ 67.2 µM

Sequence: GLLPLLLLLL
Kd (HLA-A*02:01 [1]; [3]): 0.066 µM | Kd (HLA-A*02:02): 0.0896 µM | Kd (HLA-A*02:03): 0.0893 µM | Kd (HLA-A*02:06): 0.0165 µM | Kd (HLA-A*68:02): ≥ 28.2 µM

Kd (HLA-A*02:01 [1]; source organism: Homo sapiens): 0.257 µM
Sequence: TQLMPFGCLL

Sequence: SYLQAIGIL
Kd (HLA-A*24:03): 0.0011 µM

Sequence: AEIDRSFKP
Kd (HLA-A*01:01; [5]): ≥ 20 µM | Kd (HLA-A*02:01 [2]; [5]): ≥ 20 µM | Kd (HLA-A*03:01; [5]): ≥ 20 µM | Kd (HLA-A*11:01; [5]): ≥ 20 µM | Kd (HLA-A*26:01): ≥ 20 µM | Kd (HLA-A*31:01; [5]): ≥ 20 µM | Kd (HLA-A*69:01; [5]): ≥ 20 µM | Kd (HLA-B*07:02; [5]): ≥ 20 µM | Kd (HLA-B*08:01): ≥ 20 µM | Kd (HLA-B*15:01; [5]): ≥ 20 µM | Kd (HLA-B*27:05; [5]): ≥ 20 µM | Kd (HLA-B*40:01; [5]): 1.51 µM | Kd (HLA-B*44:02; [5]): ≥ 20 µM | Kd (HLA-B*58:01; [5]): ≥ 20 µM
